Results from article PMC10690619 (Frontiers in Microbiology, 2023).

Experiments:
[1] = target: T1, cDPGS (Mf-cDPGS), cyclic 2,3-diphosphoglycerate synthetase (Methanothermus fervidus, UniProt O93732); test: HPLC-MS detection of product; type: biochemical; conditions: 50 mM ATP, 250 mM 2,3-DPG, 50 mM MgCl2, 300 mM KCl, 25 mM Tris-HCl pH 8.0, 65 C, 60 min
T1 construct: gene cpgS; full length, 460 residues, N-terminal His6 tag (pLATE51, E. coli BL21(DE3), codon-optimised gene), homodimer ~100 kDa; apo structure solved from selenomethionine protein

[2] = target: the molecule itself; test: SEC; calibrated Superdex 200 HiLoad 16/60, 20 mM Tris-HCl pH 7.5, 300 mM KCl, 1.0 mL/min, after Ni2+ affinity
[3] = target: the molecule itself; test: crystal structure; ligand-free (apo) selenomethionine protein, space group I222, one protomer in the asymmetric unit, 1.7 Å, SAD; oligomeric state analysed with PISA

O=C(O)[C@H]1COP(=O)(O)OP(=O)(O)O1 [cDPG]
HPLC-MS detection of product [1]: The direct production of cDPG was monitored by HPLC–MS

B1: cyclic 2,3-diphosphoglycerate synthetase from Methanothermus fervidus, N-terminally His-tagged (enzyme, UniProt O93732 1-460, looked up)
chain: MGETKKMICLVDGEHYFPVVKDSIEILDDLEHIDVVAVVFIGGTEKLQIEDPKEYSEKLGKPVFFGPDPKKIPYDVIKKCVKKYNADIVMDLSDEPVVDYTKRFRIASIVLKEGAVYQGADFKFEPLTEYDVLEKPSIKIIGTGKRIGKTAVSAYAARVIHKHKYNPCVVAMGRGGPREPEIVEGNKIEITAEYLLEQADKGVHAASDHWEDALMSRILTVGCRRCGGGMLGDTFITNVKRGAEIANKLDSDFVIMEGSGAAIPPVKTNRQIVTVGANQPMININNFFGPFRIGLADLVIITMCEEPMATTEKIKKVEKFIKEINPSANVIPTVFRPKPVGNVEGKKVLFATTAPKVVVGKLVNYLESKYGCDVVGVTPHLSNRPLLRRDLKKYINKADLMLTELKAAAVDVATRVAIEAGLDVVYCDNIPVVIDESYGNIDDAIIEVVEMAIDDFKNNR
notes: cyclic 2,3-diphosphoglycerate synthetase (cDPGS), Methanothermus fervidus; E. coli codon-optimised gene in pLATE51; 460 protein residues in the structures, which hold the entire polypeptide chain (N-terminal domain of 127 amino acids, C-terminal domain residues 136-460); No removal of the His tag is told; also called cDPGS; Mf-cDPGS
stoichiometry N [2]: 2

B2: selenomethionine derivative of cyclic 2,3-diphosphoglycerate synthetase from Methanothermus fervidus (enzyme, UniProt O93732 1-460, looked up)
chain: B1 chain
modifications: selenomethionine in place of methionine
notes: cyclic 2,3-diphosphoglycerate synthetase (cDPGS), Methanothermus fervidus; same construct as m1, made with selenomethionine; 460 protein residues, the entire polypeptide chain seen in the structure; Used for the ligand-free structure (SAD phasing); One protomer in the asymmetric unit; the dimer lies on a crystallographic dyad; also called SeMet cDPGS; apo-cDPGS; source: E. coli, PASM-5052 auto …
binding result [3]: binds
